# Measurements taken from article PMC10954469, “Molecular and thermodynamic determinants of self-assembly and hetero-oligomerization in the enterobacterial thermo-osmo-regulatory protein H-NS” (Nucleic Acids Research, 2024).
# Changes are numbered by the printed parent chain. Numbers in names are those of the source.
# B1: H-NS (histone-like or heat-stable nucleoid structuring protein) (natural protein, E. coli (uropathogenic))
# chain: MSEALKILNNIRTLRAQARECTLETLEEMLEKLEVVVNERREEESAAAAEVEERTRKLQQYREMLIADGIDPNELLNSLAAVKSGTKAKRAQRPAKYSYVDENGETKTWTGQGRTPAVIKKAMDEQGKSLDDFLIKQ
# notes: H-NS from uropathogenic E. coli, whole protein as printed in the methods; Expressed as the fusion H-NS:intein:CBD and released by cleavage with beta-mercaptoethanol; also called WT H-NS; wild-type H-NS; source: E. coli BL21(DE3), pTXB1 vector, purified (chitin column, intein-mediated cleavage, Superdex 200 SEC)
# B2: H-NS Y61E, phosphomimetic mutant (natural protein)
# chain: B1 chain with Y61E
# notes: H-NS from uropathogenic E. coli; also called Y61E mutant; source: E. coli BL21(DE3), pTXB1 vector, purified following identical protocols as H-NS
# B3: H-NS (histone-like or heat-stable nucleoid structuring protein), wild type (natural protein, uropathogenic E. coli)
# chain: B1 chain
# notes: H-NS from uropathogenic E. coli, 137 residues as printed; Polydisperse in solution: monomers, dimers, tetramers and octamers; Expressed as H-NS:intein:CBD fusion; also called H-NS WT; wild-type H-NS; source: E. coli BL21(DE3), pTXB1 vector, purified (chitin column, intein cleavage, Superdex 200 SEC)
# B4: Y61Em (Y61E/W109F H-NS) (natural protein)
# chain: B1 chain with Y61E, W109F
# notes: H-NS from uropathogenic E. coli; source: E. coli BL21(DE3), pTXB1 vector, purified following identical protocols as H-NS
# B5: H-NSm (W109F H-NS), tryptophan null variant of H-NS (natural protein)
# chain: B1 chain with W109F
# notes: H-NS from uropathogenic E. coli; also called H-NS tryptophan variant; source: E. coli BL21(DE3), pTXB1 vector, purified following identical protocols as H-NS
# What was measured:
# [1] = target: the molecule itself; assay: AUC + other: differential scanning calorimetry; thermodynamic model set semi-quantitatively to match AUC populations (20 °C) and DSC thermograms; constant predicted by the model for 25 °C; 300 mM ionic strength, pH 7; tetramer to dimers and octamer to tetramers (one constant KO for both steps)
# [2] = target: the molecule itself; assay: AUC + other: differential scanning calorimetry; parameters of the thermodynamic model that best capture the AUC and DSC observations; defined at the reference temperature TO 333 K; 150 mM ionic strength, pH 7; tetramer to dimers and octamer to tetramers (one constant KO for both steps)
# [3] = target: the molecule itself; assay: AUC + other: differential scanning calorimetry; thermodynamic model set semi-quantitatively to match AUC populations (20 °C) and DSC thermograms; constant predicted by the model for 37 °C; 300 mM ionic strength, pH 7; dimer to monomers
# [4] = target: the molecule itself; assay: AUC + other: differential scanning calorimetry; parameters of the thermodynamic model that best capture the AUC and DSC observations; defined at the reference temperature TD 333 K; 150 mM ionic strength, pH 7; dimer to monomers
# [5] = target: the molecule itself; assay: AUC + other: differential scanning calorimetry; thermodynamic model set semi-quantitatively to match AUC populations (20 °C) and DSC thermograms; constant predicted by the model for 25 °C; 300 mM ionic strength, pH 7; dimer to monomers
# [6] = target: the molecule itself; assay: AUC + other: differential scanning calorimetry; parameters of the thermodynamic model that best capture the AUC and DSC observations; defined at the reference temperature TO 333 K; 300 mM ionic strength, pH 7; tetramer to dimers and octamer to tetramers (one constant KO for both steps)
# [7] = target: the molecule itself; assay: AUC + other: differential scanning calorimetry; thermodynamic model set semi-quantitatively to match AUC populations (20 °C) and DSC thermograms; constant predicted by the model for 37 °C; 300 mM ionic strength, pH 7; tetramer to dimers and octamer to tetramers (one constant KO for both steps)
# [8] = target: the molecule itself; assay: AUC + other: differential scanning calorimetry; thermodynamic model set semi-quantitatively to match AUC populations (20 °C) and DSC thermograms; constant predicted by the model for 13 °C; 300 mM ionic strength, pH 7; tetramer to dimers and octamer to tetramers (one constant KO for both steps)
# [9] = target: the molecule itself; assay: AUC + other: differential scanning calorimetry; parameters of the thermodynamic model that best capture the AUC and DSC observations; defined at the reference temperature TD 333 K; 300 mM ionic strength, pH 7; dimer to monomers
# [10] = target: the molecule itself; assay: AUC + other: differential scanning calorimetry; thermodynamic model set semi-quantitatively to match AUC populations (20 °C) and DSC thermograms; constant predicted by the model for 13 °C; 150 mM ionic strength, pH 7; tetramer to dimers and octamer to tetramers (one constant KO for both steps)
# [11] = target: the molecule itself; assay: AUC + other: differential scanning calorimetry; thermodynamic model (octamer, tetramer, dimer, folded and unfolded monomer) whose parameters were set semi-quantitatively to match AUC populations (20 °C) and DSC thermograms; constant predicted by the model for 13 °C; 150 mM ionic strength, pH 7; dimer to monomers
# [12] = target: the molecule itself; assay: AUC + other: differential scanning calorimetry; thermodynamic model set semi-quantitatively to match AUC populations (20 °C) and DSC thermograms; constant predicted by the model for 13 °C; 300 mM ionic strength, pH 7; dimer to monomers
# [13] = target: the molecule itself; assay: AUC; sedimentation velocity, 20°C, 150 mM ionic strength, pH 7, 15-200 μM protein, c(s) analysis with SEDFIT
# [14] = target: the molecule itself; assay: AUC + other: differential scanning calorimetry; thermodynamic model brought into semi-quantitative agreement with AUC populations and DSC curves; 150 mM ionic strength, pH 7; constant at 25°C; tetramer to dimers and octamer to tetramers (one constant KO for both)
# [15] = target: the molecule itself; assay: AUC + other: differential scanning calorimetry; thermodynamic model brought into semi-quantitative agreement with AUC populations and DSC curves; 150 mM ionic strength, pH 7; constant at 37°C; tetramer to dimers and octamer to tetramers (one constant KO for both)
# [16] = target: the molecule itself; assay: AUC + other: differential scanning calorimetry; thermodynamic model brought into semi-quantitative agreement with AUC populations and DSC curves; 150 mM ionic strength, pH 7; constant at 25°C; dimer to monomers
# [17] = target: the molecule itself; assay: AUC + other: differential scanning calorimetry; thermodynamic model brought into semi-quantitative agreement with AUC populations and DSC curves; 150 mM ionic strength, pH 7; constant at 37°C; dimer to monomers
# [18] = target: T1, Cnu, co-repressor of the Hha family (E. coli, UniProt P64467 1-71); assay: other fluorescence titration; tryptophan (W67) emission of 2 μM Cnu, excitation 295 nm, with 30 nM to 50 μM tryptophan-free H-NS variant; intensity-averaged wavenumber; Hill equation, apparent (K1/2); 150 mM ionic strength, pH 7, 25°C; settings: both partners purified
# T1 construct: Cnu, a member of the Hha family in E. coli; harbors a sole tryptophan (W67)
# T1 sequence (looked up): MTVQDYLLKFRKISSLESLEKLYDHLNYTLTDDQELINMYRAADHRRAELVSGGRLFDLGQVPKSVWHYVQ
# [19] = target: B3; assay: fluorescence polarisation; steady-state tryptophan (W109) anisotropy of 2 μM wild-type H-NS with 30 nM to 50 μM H-NSm, 150 mM ionic strength, pH 7, 13, 25 and 37°C; settings: both partners purified
# [20] = target: T1, Cnu, co-repressor of the Hha family; assay: other fluorescence titration; tryptophan (W67) emission of 2 μM Cnu, excitation 295 nm, with 30 nM to 50 μM tryptophan-free H-NS variant; intensity-averaged wavenumber; Hill equation, apparent (K1/2); 300 mM ionic strength, pH 7, 25°C; settings: both partners purified
binder,measurement,setting,value
B1,Kd,[1],18.5 µM
same,Kd,[2],100 µM
same,Kd,[3],13.6 µM
same,Kd,[4],1000 µM
same,Kd,[5],4.22 µM
same,Kd,[6],100 µM
same,Kd,[7],34.5 µM
same,Kd,[8],9.39 µM
same,Kd,[9],100 µM
same,Kd,[10],17 µM
same,Kd,[11],0.0238 µM
same,Kd,[12],1.19 µM
B2,stoichiometry N,[13],2
B3,Kd,[14],~30 µM
same,Kd,[15],~45 µM
same,Kd,[16],~0.5 µM
same,Kd,[17],~8 µM
B4,Kd,[18],1.6 µM
B5,Kd,[18],4 µM
same,binding result,[19],binds
same,Kd,[20],12 µM
